Tests used:
actin = experiment: Pyrene actin assay, actin polymerisation in the absence of Arp2/3; assay type: biochemical, rabbit; settings: no Arp2/3, 300 nM fragment, 3 µM actin
Procedure: 300 nM each fragment; 3 µM actin. […] Error bars are standard error of mean.
Rabbit skeletal muscle actin was gel filtered as described. Concentrations of G-actin produced and used in experiments were in the range 35–65 µM.
(§1) Fluorometry assays were performed as described previously. 370 μl assays used 3 μM actin as indicated unless otherwise specified. Pyrene-actin was added to 5%, mixed thoroughly, and added to the fluorometry cuvette. Polymerization salts, 10× KME (500 mM KCl, 10 mM MgCl2, 10 mM EGTA, 100 mM Tris-HCl [pH 8.0]) were mixed with fragments or G buffer to give final concentration of 0.5× KME before reading fluorescence. […] Experiments were carried out three separate times with different protein preparations and a representative graph shown.

G-actin [1] = experiment: MST, Las17 300-422 P387A / P388A to labelled G-actin; assay type: binding, rabbit; settings: three repeats, not statistically significant
Text: (§2) A Purified individual GST-tagged Sla1 SH3 domains were used to probe a Celluspot array consisting of a series of 12 amino acid peptides starting with residue 181, and subsequent peptides starting at two amino acid intervals, up to amino acid 540. Binding of GST-Sla1 SH3 to the array was identified by further probing of HRP-tagged anti-GST and subsequent visualisation using chemiluminescence. […] Error bars are standard error of mean.
The small reduction was not found to be statistically significant over three repeats.
(§3) Microscale Thermophoresis (MST) assays were performed as described previously. Briefly, rabbit muscle actin in G-buffer minus DTT was […] using Monolith NT^TM Protein Labelling Kit RED-Malemide (NanoTemper Technologies, Munich, Germany). […] Each reaction was then loaded into Monolith NT.115 Premium Treated Capillaries (NanoTemper Technologies) and thermophoresis was measured in a Monolith NT.115 Microscale Thermophoresis device (NanoTemper Technologies). Thermophoresis was measured at 20% red LED power and 40% IR laser power at 22°C. Fnorm was calculated from the ratio of fluorescence before heating and after the new equilibrium had been reached. […] Each experiment was carried out three separate times with protein from different protein preparations and mean ± SE shown except for Fig. 7a where mean ± SD is shown.

[2] = target: Las17 PPR-N fragment (residues 300-422), wild type (S. cerevisiae) (UniProt Q12446); experiment: BLI; Octet R2 (Sartorius); Octet NTA Biosensors or Octet GST Biosensors, which partner was loaded is not stated; repeated three times; the constant of SH3#1-3 is called apparent
[3] = system: Las17 and las17 P387A expressing yeast strains; experiment: Latrunculin-A halo assay on yeast; assay type: cell-based, Saccharomyces cerevisiae; settings: 10 µl latrunculin-A disc, halo assay, 5 repeats
Procedure: Supplementary Information.
Methods used in Supplementary Data
Yeast strains, growth and staining
Yeast plasmids used in this study are listed in Supplementary table 1 and yeast strains used in Supplementary table 2. Unless stated otherwise, cells were grown with rotary shaking at 30°C in liquid YPD medium (1% yeast extract, 2% Bacto-peptone, 2% glucose supplemented with 40 μg/ml adenine) or in synthetic medium (0.67% yeast nitrogen base, 2% glucose) with appropriate supplements. Growth assays used solid medium with 2% agar added to above. All strains carrying fluorescent tags have growth properties similar to isogenic control strains with the exception of strains carrying dual reporters where lifetimes were longer for both wild type and mutant strains (in Figure 9D). Point mutations in LAS17 were generated using site directed mutagenesis (Agilent). DNA cassettes carrying mutations for integration were transformed into KAY1801. Mutant colonies were counter-selected on minimal medium, containing 0.005% uracil and 0.1% 5’-Fluoroorotic Acid (5-FOA; Melford labs). […]
expressing strains on plates on which a disc carrying 10 µl of latrunculin-A of varying concentrations was placed (white disc). […] They were then scored according to the extent of uptake and categorised according to the key shown. >100 cells were visualised for each strain in each of 3 independent experiments. […]

[4] = target: Las17 PPR-N fragment (residues 300-422); experiment: Biolayer Interferometry (BLI), Sla1 SH3 domains to Las17 PPR-N; assay type: binding, Saccharomyces cerevisiae; settings: Biolayer Interferometry
Text: (§4) To investigate binding characteristics of the SH3 domains further, Sla1 SH3 protein domains were purified. Three Sla1 SH3 single domains, tandem domains Sla1 SH3#1&2, Sla1 SH3#1&2 W108A (in which the W108A mutation prevents proline motif binding by SH3#2 but not SH3#1) and a fragment with all three SH3 domains were expressed recombinantly and purified. […] This outcome is in line with original research of Rodal and colleagues and with more recent studies of avidity developed by Williamson, which highlighted the importance of tandem binding SH3 domains[13],[27].
Biolayer Interferometry (BLI) assays were performed using an OctetⓇ R2 (Sartorius). Protein samples were placed into the wells of a polystyrene plate (ProxiPlateTM, Perkin Elmer) and binding measured either with Octet NTA Biosensors or Octet GST Biosensors. Screening assays were performed to determine the optimum loading concentration and time for each binding pair to ensure that the probe was not saturated. All experiments were repeated three times, each time with newly prepared protein. Analysis and visualisation were performed using GraphPad Prism 10.0.2.

G-actin [5] = experiment: MST, Las17 300-422 to labelled G-actin in presence or absence of Sla1 SH3#1-3 (competition); assay type: binding, rabbit; settings: Sla1 SH3#1-3 4.5 µM, actin 50 nM, Las17(300–422) 0.29-9.5 µM
Procedure: The experiment was then repeated with the addition of Sla1 SH3#1-3 fragment at 4.5 µM.
Error bars are standard deviation.
Microscale Thermophoresis (MST) assays were performed as described previously[15]. Briefly, rabbit muscle actin in G-buffer minus DTT was lysine labelled using Monolith NT^TM Protein Labelling Kit RED-Malemide (NanoTemper Technologies, Munich, Germany). […] Each reaction was then loaded into Monolith NT.115 Premium Treated Capillaries (NanoTemper Technologies) and thermophoresis was measured in a Monolith NT.115 Microscale Thermophoresis device (NanoTemper Technologies). Thermophoresis was measured at 20% red LED power and 40% IR laser power at 22°C. Fnorm was calculated from the ratio of fluorescence before heating and after the new equilibrium had been reached.

[6] = system: Las17-Arp2/3 mediated actin polymerisation; experiment: Pyrene actin assay, inhibition of Las17-Arp2/3 mediated actin polymerisation by Sla1 SH3 domains; assay type: biochemical; settings: Actin 3 µM, Las17 300 nM, Sla1 SH3 domains 300 nM each (1:1), with Arp2/3
Procedure: SH3 domains of Sla1 are numbered #1, #2 and #3. […] PP in pink boxes indicate poly-proline tracts in this region. Other regions of Las17 are included but not to scale. B Representative pyrene actin assays show inhibition of Las17-Arp2/3 mediated actin polymerisation by Sla1-SH3 domains when added as separate domains (orange #1, green #2 or cyan #3) or on a single peptide (red). […] Sla1 SH3#1 (aa 3-68), SH3#3 (aa 354-413), SH3#1-2 (aa 5-131), SH3#1-3 (aa 5-413).
as §1

[7] = system: Las17-Arp2/3 mediated actin polymerisation; settings: 15 nM Las17, 1 µM Sla1 SH3 domains, ref [13]; cited from earlier work
Text: In Sla1 the first two SH3 domains are immediately juxtaposed with no linker. There are then 236 residues before the third SH3 domain (Fig. 1A).

Las17 = experiment: Microscale thermophoresis, Sla1 SH3#2 to Las17; assay type: binding, Saccharomyces cerevisiae; settings: could not be saturated within the concentration range
Text: as §4, §3

[8] = system: Las17 12mer peptides / GST-Sla1 SH3 domains; experiment: Peptide spot array (Celluspot) of Las17 12mers probed with GST-Sla1 SH3 domains; assay type: binding, Saccharomyces cerevisiae; settings: GST-Sla1 SH3 domain on 12mer array, 2-residue offset, anti-GST HRP, chemiluminescence
Procedure: as §2
They were incubated with GST fused SH3 domains of Sla1 or with GST alone, as described in ref.[57]. Membranes were probed with HRP tagged anti-GST, and the presence of SH3-GST fusion protein was detected with ECL chemiluminescent detection solution (Thermo Fisher Scientific).

Molecule: Las17(342–392): minimal Las17 fragment with two arginine-pair actin sites, left on GST tag
- stimulation of Arp2/3-independent actin polymerisation (actin): unable to stimulate Arp2/3-independent actin polymerisation

Molecule: Las17 (300–422) P388A: Las17 (300–422) with P388A mutation
- effect on actin binding (G-actin [1]): little change in actin binding

Molecule: Sla1 SH3#1&2 W108A (domain or fragment)
- Kd [2]: 7.4 µM

Molecule: C/C1=C/C(=O)O[C@@H]2C[C@@H](CC[C@H](C)/C=C\C=C\CC1)O[C@@](O)([C@@H]1CSC(=O)N1)C2 [latrunculin-A, reference compound]
- increase in Lat-A sensitivity of las17 P387A compared to wild type [3]: 7 fold

Molecule: Las17 (300–422) P387A: Las17 (300–422) with P387A mutation
- effect on actin binding (G-actin [1]): little change in actin binding

Molecule: Las17(300–633): Las17 fragment containing both PPR and VCA
- stimulation of Arp2/3-independent actin polymerisation (actin): able to stimulate actin polymerisation in the absence of Arp2/3

B1: Sla1 SH3#1-3: SH3#1-3 (aa 5-413), fragment with all three SH3 domains (protein)
chain: LGIYRAVYAYEPQTPEELAIQEDDLLYLLQKSDIDDWWTVKKRVIGSDSEEPVGLVPSTYIEEAPVLKKVRAIYDYEQVQNADEELTFHENDVFDVFDDKDADWLLVKSTVSNEFGFIPGNYVEPENGSTSKQEQAPAAAEAPAATPAAAPASAAVLPTNFLPPPQHNDRARMMQSKEDQAPDEDEEGPPPAMPARPTATTETTDATAAAVRSRTRLSYSDNDNDDEEDDYYYNSNSNNVGNHEYNTEYHSWNVTEIEGRKKKKAKLSIGNNKINFIPQKGTPHEWSIDKLVSYDNEKKHMFLEFVDPYRSLELHTGNTTTCEEIMNIIGEYKGASRDPGLREVEMASKSKKRGIVQYDFMAESQDELTIKSGDKVYILDDKKSKDWWMCQLVDSGKSGLVPAQFIEPV
modifications: left off: GST, end not stated, cleaved
notes: SH3#1-3 (aa 5-413), fragment with all three SH3 domains
- Kd ([4]; Octet R2, Las17 (aa 300-422), three repeats with newly prepared protein, read-out: binding affinity (Kd)): 0.039 µM
- fold change in apparent Kd of actin for Las17 (G-actin [5]): 40 fold
- fold change in apparent Kd of actin for Las17 (G-actin [5]; listed as Sla1): 40.6 fold
- inhibition of Las17-Arp2/3 mediated actin polymerisation [6]: substantial inhibition of actin polymerisation
- inhibition of actin polymerisation activity [7]: about 85%

B2: Sla1 SH3#2: second SH3 domain of Sla1, GST-Sla1 SH3#2 in pGEX4T1 (protein)
chain: PVLKKVRAIYDYEQVQNADEELTFHENDVFDVFDDKDADWLLVKSTVSNEFGFIPGNYVEPENG
modifications: left off: GST, end not stated, cleaved
notes: second SH3 domain of Sla1, GST-Sla1 SH3#2 in pGEX4T1
- binding ([4]; result in words): showed no binding
- binding (Las17): weak binding was detected
- binding to Las17 peptide spots [8]: only showed weak binding to spots
- inhibition of actin polymerisation activity [7]: about 80%
